Positions count from the first letter of the chain named.
What was measured:
human FGFR2 IIIb = target: T1, human FGFR2 IIIb (Homo sapiens, UniProt P21802); assay: Elk1 luciferase reporter gene assay, FGFR2 IIIb-expressing 293α cells, ligand FGF7; assay type: cell-based; details: FGF7 10 ng/ml; for ligand FGF7 dependent reporter activation in the FGFR2 IIIb-expressing cells: antibody preincubated 1 hour, 6 hours; for ligand FGF7 dependent reporter activation in FGFR2-expressing HEK293 reporter cells (screening): hybridoma culture supernatant diluted 5-fold
T1 construct: expressed in transfected cells; host or cells: 293α cells (HEK293 stably transfected with integrin αv and β3)
T1 sequence (P21802 22-822 isoform P21802-3 limits assumed): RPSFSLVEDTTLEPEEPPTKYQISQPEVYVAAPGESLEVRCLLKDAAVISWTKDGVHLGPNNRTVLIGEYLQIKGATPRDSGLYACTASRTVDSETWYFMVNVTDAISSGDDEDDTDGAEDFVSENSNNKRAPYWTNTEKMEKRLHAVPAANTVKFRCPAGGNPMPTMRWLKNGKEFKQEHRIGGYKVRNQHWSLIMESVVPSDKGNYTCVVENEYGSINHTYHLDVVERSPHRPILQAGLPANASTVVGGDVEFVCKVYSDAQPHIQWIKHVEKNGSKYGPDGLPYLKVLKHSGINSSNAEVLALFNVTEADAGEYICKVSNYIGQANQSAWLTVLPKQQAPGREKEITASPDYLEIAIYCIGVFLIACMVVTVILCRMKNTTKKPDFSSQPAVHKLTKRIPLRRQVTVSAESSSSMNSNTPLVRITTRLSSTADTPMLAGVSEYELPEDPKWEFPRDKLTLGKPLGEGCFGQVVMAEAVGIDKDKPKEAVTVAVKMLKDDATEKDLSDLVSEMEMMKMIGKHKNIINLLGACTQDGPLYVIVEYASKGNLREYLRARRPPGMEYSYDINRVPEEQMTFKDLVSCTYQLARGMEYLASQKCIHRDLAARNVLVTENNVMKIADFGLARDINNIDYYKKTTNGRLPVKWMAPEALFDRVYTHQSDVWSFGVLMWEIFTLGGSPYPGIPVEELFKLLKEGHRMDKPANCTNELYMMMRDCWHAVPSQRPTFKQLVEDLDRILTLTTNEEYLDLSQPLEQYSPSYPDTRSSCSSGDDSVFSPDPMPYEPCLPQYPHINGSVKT
Experimental: In order to evaluate the signal-neutralizing effect of the anti-FGFR2 antibody produced by each obtained hybridoma, an Elk1 luciferase reporter gene assay system for detecting ERK (extracellular signal-regulated kinase) activation induced by FGFR2 activation via ligand FGF7 stimulation was constructed by a method shown below and used in the evaluation of the obtained antibody for its effect.
The Elk1 luciferase reporter gene assay was carried out using each hybridoma culture supernatant selected in Example 1)-5. A cell line 293α, which was HEK293 cells stably transfected with integrin αv and integrin β3 expression vectors, was transiently cotransfected with pcDNA-DEST40-FGFR2 IIIb or pcDNA-DEST40, pFA2-Elk1 (manufactured by Stratagene Corp.), pFR-Luc2CP, and pGL4.74[hRluc/TK] (manufactured by Promega Corp.) according to transfection procedures using Lipofectamine 2000 (manufactured by Invitrogen Corp.), inoculated to a white 96-well cell culture plate (manufactured by Corning Inc.), and cultured overnight at 37° C. under 5% CO2 conditions. On the next day, the culture supernatant was removed, and the hybridoma culture supernatant diluted 5-fold with DMEM containing 5% FBS was added at a concentration of 50 μl/well to the plate. After culture at 37° C. for 1 hour under 5% CO2 conditions, a ligand human FGF7 (manufactured by R&D systems, Inc.) was added at a final concentration of 10 ng/ml to each well. After incubation for 6 hours, cell lysates were prepared and assayed for firefly luciferase activity (specific signal) and Renilla luciferase activity (signal for normalization) using Dual-luciferase reporter assay system (manufactured by Promega Corp.). The firefly/Renilla ratio was calculated to normalize data on each well.
In order to evaluate the signal-neutralizing effects of the obtained antibodies by the Elk1 luciferase reporter gene assay, 293α cells were cotransfected with pcDNA-DEST40-FGFR2 IIIb or pcDNA-DEST40-FGFR2 IIIc constructed in Example 1)-3-1, pFA2-Elk1 (manufactured by Stratagene Corp.), pFR-Luc2CP, and pGL4.74[hRluc/TK] (manufactured by Promega Corp.) by the method shown in Example 1)-6-2, and cultured overnight at 37° C. under 5% CO2 conditions. On the next day, the culture supernatant was removed, and the cells were then preincubated for 1 hour with the rat FR2-10, FR2-13, or FR2-14 antibody diluted with DMEM containing 2% FBS. Subsequently, a ligand human FGF7 (manufactured by R&D systems, Inc.) or human FGF9 (manufactured by PeproTech Inc.) was added at a final concentration of 10 ng/ml to each well. After incubation for 6 hours, firefly luciferase activity (specific signal) and Renilla luciferase activity (signal for normalization) were assayed using Dual-Glo Luciferase Assay System (manufactured by Promega Corp.). The firefly/Renilla ratio was calculated to normalize data on each well.
In order to evaluate the signal-neutralizing effects of the obtained antibodies by the Elk1 luciferase reporter gene assay, 293α cells were transfected with pcDNA-DEST40-FGFR2 IIIb or pcDNA-DEST40-FGFR2 IIIc constructed in Example 1)-3-1 by the method shown in Example 1)-6-2, and cultured overnight at 37° C. under 5% CO2 conditions. On the next day, the culture supernatant was removed, and the cells were then preincubated for 1 hour with the cFR2-10, cFR2-13, or cFR2-14 antibody (final concentration: 0.05 to 5 μg/ml) diluted with DMEM containing 2% FBS. Subsequently, a ligand human FGF7 (manufactured by R&D systems, Inc.) or human FGF9 (manufactured by PeproTech Inc.) was added at a final concentration of 10 ng/ml to each well. After incubation for 6 hours, cell lysates were prepared and assayed for firefly luciferase activity (specific signal) and Renilla luciferase activity (signal for normalization) using Dual-luciferase reporter assay system (manufactured by Promega Corp.). The firefly/Renilla ratio was calculated to normalize data on each well. […]

human FGFR2 = target: T2, human FGFR2 (Homo sapiens, UniProt P21802); assay: Flow cytometry, selective binding to human FGFR expression vector-transfected HEK293T cells; details: hybridoma culture supernatant, FGFR1 IIIc, FGFR2 IIIb, FGFR3 IIIb, FGFR4 transfectants
T2 construct: expressed in transfected cells; host or cells: HEK293T cells
T2 sequence (P21802 22-822 isoform P21802-3): as the sequence (P21802 22-822 isoform P21802-3 limits assumed) above
Experimental: HEK293T cells were inoculated at a density of 5×10^4 cells/cm^2 to a 225-cm^2 flask (manufactured by Sumitomo Bakelite Co., Ltd.) and cultured overnight at 37° C. under 5% CO2 conditions in a DMEM medium containing 10% FBS. On the next day, the pcDNA-DEST40-FGFR2 IIIb IgD1-deletion mutant deficient in the N-terminal IgD1 domain or a control pcDNA-DEST40 was transfected to the HEK293T cells using Lipofectamine 2000, and the cells were further cultured overnight at 37° C. under 5% CO2 conditions. On the next day, the expression vector-transfected HEK293T cells were treated with TrypLE Express (manufactured by Life Technologies Corp.), washed with DMEM containing 10% FBS, and then suspended in PBS containing 5% FBS. The obtained cell suspension was used in flow cytometry analysis.
cDNAs encoding a human FGFR1 IIIc variant protein (isoform 1: NP_075598), a human FGFR3 IIIb variant protein (isoform 3: NP_001156685), a human FGFR3 IIIc variant protein (isoform 1: NP_000133), and a human FGFR4 protein (isoform 1: NP_002002) were cloned into pcDNA-DEST40 vectors to construct vectors pcDNA-DEST40-FGFR1 IIIc, pcDNA-DEST40-FGFR3 IIIb, pcDNA-DEST40-FGFR3 IIIc, and pcDNA-DEST40-FGFR4 for expression of each variant protein, respectively.
Each human FGFR expression vector constructed in Examples 1)-3-1 and 2)-1-1 was transfected to HEK293T cells by the method shown in Example 1)-5-1. The cell suspension was centrifuged to remove the supernatant. Then, these various human FGFR expression vector-transfected HEK293T cells and the pcDNA-DEST40-transfected HEK293T cells were separately suspended by the addition of the hybridoma culture supernatant containing the FR2-10, FR2-13, or FR2-14 antibody and left standing at 4° C. for 1 hour. […] The data was analyzed using Flowjo (manufactured by Tree Star Inc.). After removal of 7-aminoactinomycin D-positive dead cells by gating, the FITC fluorescence intensity of live cells was plotted to a histogram to calculate average fluorescence intensity (MFI).

B1: FR2-13: anti-human FGFR2 rat monoclonal antibody obtained by the method described in Example 1; VH SEQ ID NO: 14, VL SEQ ID NO: 24 (antibody, listed as Rattus norvegicus, V domains shown)
VH: QVKLLQSGAELVKPGASVKLSCKTSGFTFSTSYMSWLKQVPGPSIEWIGWIYAGDGGTKYNQKFKGKATLTVDKSSSTAYMDLSSLTSEDAAVYFCATDGYGDWFAYWGQGTLVTVSS
VL: DIQMTQSPASLSASLGETVTIECRASEDIYSNLAWYQQKPGNSPQLLIYDANILADGVPSRFSGSGSGTQYSLKINSLQSEDVASYFCQQYNNYPPFTFGVGTKLELKRA
Human FGFR2 IIIb
  ligand FGF7 dependent reporter activation in the FGFR2 IIIb-expressing cells: inhibited
  ligand FGF7 dependent reporter activation in FGFR2-expressing HEK293 reporter cells (screening): reduced ligand FGF7 dependent reporter activation to a ligand-free level
Human FGFR2
  selective binding activity against human FGFR2: selectively bind to both human FGFR2 IIIb and FGFR2 IIIc

B2: FR2-14: anti-human FGFR2 rat monoclonal antibody obtained by the method described in Example 1; VH SEQ ID NO: 16, VL SEQ ID NO: 26 (antibody, listed as Rattus norvegicus, V domains shown)
VH: B1 VH with I45T, S75F, A106T
VL: B1 VL with V101A
Human FGFR2 IIIb
  ligand FGF7 dependent reporter activation in the FGFR2 IIIb-expressing cells: inhibited
  ligand FGF7 dependent reporter activation in FGFR2-expressing HEK293 reporter cells (screening): reduced ligand FGF7 dependent reporter activation to a ligand-free level
Human FGFR2
  selective binding activity against human FGFR2: selectively bind to both human FGFR2 IIIb and FGFR2 IIIc

B3: FR2-10: anti-human FGFR2 rat monoclonal antibody obtained by the method described in Example 1; VH SEQ ID NO: 12, VL SEQ ID NO: 21 (antibody, listed as Rattus norvegicus, V domains shown)
VH: EVQLVESGGGLVQPGRSLKLSCVASGFRFNDFWMTWIRQAPGKGLEWVASITYTGDNTYYAGSVKGRITISRDNAKSTLYLQMNSLRSEDTATYYCTRDDYGGYSPYYMDAWGQGTSVTVSS
VL: DIQMTQSPSSLSAFLGDRVTITCRASQDIGNYLRWFQQKPGKSPRLMIYGATNLANGVPSRFSGSRSGSDYSLTINNLESEDMAIYYCLKHNEYPFTFGSGTKLEIKRA
Human FGFR2 IIIb
  ligand FGF7 dependent reporter activation in the FGFR2 IIIb-expressing cells: inhibited
  ligand FGF7 dependent reporter activation in FGFR2-expressing HEK293 reporter cells (screening): reduced ligand FGF7 dependent reporter activation to a ligand-free level
Human FGFR2
  selective binding activity against human FGFR2: selectively bind to human FGFR2 IIIb

Source: patent US9931401B2, “Combination comprising anti-fibroblast growth factor receptor 2 (FGFR2) antibody and a tyrosine kinase inhibitor” (Daiichi Sankyo Company, Limited, priority 2013, dated 2018)
